Reference: the supplement of paper PMC10724198
± gives the standard deviation of the averaged measurements.

Key:
Saccharomyces cerevisiae [1] = experiment: protein stability index of tFT-peptide fusion (C-terminal peptide) (PSI (0-1 scale)); higher = more stable (slower turnover)
Method: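 MPS profiling in S. cerevisiae of the tFT-X12 degron library: putative degron peptides plus stable controls, 12 aa, fused to the C-terminus of a sfGFP-mCherry timer. Cells are FACS-sorted into 8 mCherry/sfGFP bins and deep-sequenced. PSI runs from 0 (unstable) to 1 (stable). Backgrounds are wild type, das1Δ and doa10Δ at 30 °C, and wild type, das1Δ, cdc34-1 and cdc53-1 at 37 °C; 2-3 technical replicates each.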

Saccharomyces cerevisiae [2] = experiment: as above; conditions: genetic background: wild type; temperature: 30 C
[3] = genetic background: cdc34-1, temperature: 37 C
[4] = genetic background: cdc53-1, temperature: 37 C
[5] = genetic background: das1 deletion, temperature: 30 C
[6] = genetic background: das1 deletion, temperature: 37 C
[7] = genetic background: doa10 deletion, temperature: 30 C
[8] = genetic background: wild type, temperature: 30 C
[9] = genetic background: wild type, temperature: 37 C
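Also: PSI is a weighted mean of sequencing reads over stability bins, variants kept only with over 10 reads, mCherry proximal and sfGFP distal, peptide attached via GGGS linker.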

Row | Sequence | protein stability index (Saccharomyces cerevisiae [1]; [3]) | protein stability index (Saccharomyces cerevisiae [1]; [4]) | protein stability index (Saccharomyces cerevisiae [1]; [5]) | protein stability index (Saccharomyces cerevisiae [1]; [6]) | protein stability index (Saccharomyces cerevisiae [1]; [7]) | protein stability index (Saccharomyces cerevisiae [1]; [8]) | protein stability index (Saccharomyces cerevisiae [1]; [9]) | protein stability index (Saccharomyces cerevisiae [2])
1 | YFTNCYRSILTF | 0.4366 ± 0.0011 | 0.487 ± 0.013 | 0.367 ± 0.047 | 0.51517 ± 0.00037 | 0.3196 ± 0.00079 | 0.355 ± 0.031 | 0.48177 ± 0.00025 | 0.4436 ± 0.00083
2 | YGWILQLPCFVI | 0.246 ± 0.02 | 0.237 ± 0.00093 | 0.24 ± 0.031 | 0.37294 ± 0.00032 | 0.219 ± 0.0057 | 0.245 ± 0.023 | 0.315 ± 0.027 | 0.338 ± 0.0082
3 | YHDKLRAIEKFF | 0.669 ± 0.03 | 0.725 ± 0.0075 | 0.635 ± 0.018 | 0.74 ± 0.03 | 0.199 ± 0.019 | 0.219 ± 0.04 | 0.49 ± 0.0052 | 0.331 ± 0.065
4 | YLCFVVSCGVLR | 0.421 ± 0.0051 | 0.475 ± 0.026 | 0.327 ± 0.031 | 0.529 ± 0.0087 | 0.295 ± 0.018 | 0.313 ± 0.017 | 0.5035 ± 0.0016 | 0.383 ± 0.086
5 | YLFFSCIFTFSC | 0.121 ± 0.025 | 0.198 ± 0.027 | 0.179 ± 0.024 | 0.331 ± 0.014 | 0.189 ± 0.011 | 0.211 ± 0.091 | 0.273 ± 0.018 | 0.316 ± 0.025
6 | YLFLPGGEVSVH | 0.641 ± 0.033 | 0.653 ± 0.019 | 0.538 ± 0.032 | 0.666 ± 0.0033 | 0.5204 ± 0.0031 | 0.553 ± 0.019 | 0.6369 ± 0.00098 | 0.487 ± 0.083
7 | YLGSPLSLMLVA | 0.48 ± 0.022 | 0.491 ± 0.026 | 0.379 ± 0.031 | 0.51 ± 0.006 | 0.332 ± 0.031 | 0.355 ± 0.022 | 0.481 ± 0.009 | 0.475 ± 0.032
8 | YPFSLVLGVFAF | 0.367 ± 0.02 | 0.389 ± 0.022 | 0.298 ± 0.028 | 0.456 ± 0.0094 | 0.285 ± 0.01 | 0.325 ± 0.0062 | 0.4104 ± 0.0034 | 0.405 ± 0.033
9 | YPPLFLLMRGVL | 0.594 ± 0.021 | 0.694 ± 0.013 | 0.605 ± 0.018 | 0.712 ± 0.021 | 0.157 ± 0.011 | 0.175 ± 0.034 | 0.357 ± 0.016 | 0.258 ± 0.075
10 | YRHYGVARKKLA | 0.592 ± 0.075 | 0.7016 ± 0.0023 | 0.634 ± 0.034 | 0.713 ± 0.028 | 0.081 ± 0.009 | 0.134 ± 0.01 | 0.127 ± 0.016 | 0.152 ± 0.0056
11 | YTQKFTFYGLPA | 0.701 ± 0.035 | 0.721 ± 0.013 | 0.639 ± 0.038 | 0.727 ± 0.013 | 0.618 ± 0.033 | 0.616 ± 0.016 | 0.708 ± 0.02 | 0.027 ± 0.023
12 | YVRHDKLILSFC | 0.492 ± 0.026 | 0.529 ± 0.041 | 0.427 ± 0.021 | 0.5562 ± 0.0027 | 0.3915 ± 0.002 | 0.414 ± 0.019 | 0.54 ± 0.011 | 0.489 ± 0.013
13 | YVSLPFVVWWFC | 0.443 ± 0.029 | 0.533 ± 0.016 | 0.414 ± 0.026 | 0.591 ± 0.0081 | 0.1839 ± 0.0011 | 0.198 ± 0.014 | 0.375 ± 0.0063 | 0.309 ± 0.033
14 | YWFWLLIGSFSC | 0.487 ± 0.053 | 0.51 ± 0.013 | 0.382 ± 0.026 | 0.526 ± 0.011 | 0.36 ± 0.019 | 0.382 ± 0.024 | 0.504 ± 0.012 | 0.4576 ± 0.0029
15 | YWGFHPCCAFGY | 0.722 ± 0.048 | 0.784 ± 0.012 | 0.636 ± 0.013 | 0.77 ± 0.023 | 0.654 ± 0.035 | 0.659 ± 0.019 | 0.745 ± 0.051 | 0.711 ± 0.0091
16 | YYQVSQKIQRKQ | 0.681 ± 0.012 | 0.708 ± 0.021 | 0.639 ± 0.023 | 0.726 ± 0.042 | 0.323 ± 0.0077 | 0.371 ± 0.018 | 0.584 ± 0.014 | 0.435 ± 0.065
